# Patent publication US20150010566A1
# What was measured:
# Assay in all cases: cell-based or functional assay
# [1] = molecular target: HA of low pathogenic H7N1 (A/Ch/Italy/1067/1999), on infected MDCK cells or on virus (Influenza A virus H7N1 A/Ch/Italy/1067/1999 (host Chicken))
# [2] = molecular target: HA of Influenza H3N2 (A/Swine/St. Oedenrode/1996), on infected MDCK cells or on virus (Influenza A virus H3N2 A/Swine/St. Oedenrode/1996 (host Swine))
# [3] = molecular target: HA of H5N1 A/turkey/Turkey/05 virus (Influenza A virus H5N1 A/turkey/Turkey/05)
# [4] = molecular target: HA of high pathogenic H7N7 (A/Ch/Neth/621557/03), on infected MDCK cells or on virus (Influenza A virus H7N7 A/Ch/Neth/621557/03 (host Chicken))
# [5] = molecular target: HA of Influenza H1N1 (A/Neth/602/2009), on infected MDCK cells or on virus (Influenza A virus H1N1 A/Neth/602/2009 (host Human))
substance,measurement,setting,value
CR8020 (antibody),"IC50, in vitro virus neutralization on MDCK cells",[1],> 15 µg/mL
same,"IC50, in vitro virus neutralization on MDCK cells",[2],> 15 µg/mL
same,"IC50, in vitro virus neutralization on MDCK cells",[3],> 15 µg/mL
same,"IC50, in vitro virus neutralization on MDCK cells",[4],0.6 µg/mL
same,"IC50, in vitro virus neutralization on MDCK cells",[5],> 15 µg/mL
